Experiment: soluble on expression in E. coli; label from the status in PepcDB or PDB records

Sequence	soluble on expression in E. coli
MGSDKIHHHHHHMSNTPIELKGSSFTLSVVHLHEAEPKVIHQALEDKIAQAPAFLKHAPVVLNVSALEDPVNWSAMHKAVSATGLRVIGVSGCKDAQLKAEIEKMGLPILTEGKEKAPRPAPTPQAPAQNTTPVTKTRLIDTPVRSGQRIYAPQCDLIVTSHVSAGAELIADGNIHVYGMMRGRALAGASGDRETQIFCTNLMAELVSIAGEYWLSDQIPAEFYGKAARLQLVENALTVQPLN	not soluble
MGSDKIHHHHHHVDGSTMIARNDDTFLPLTPQRFYVHPAEKNQPKRTWVSNQNGFTAPIPSDGYRYLATPNVEVDKEGVYAESGFNEKNVAMSATESVYGNPAALAIDPLVQNGLAEDSLQTMVLPYINSARDGVRYLGQLIKQYGSPEGNGVLFSDHDEVWYMEIVTGHHWVAQRIPDDAYAITANQVAIQQVSFDDPDNFMFSDGIQDFVTENHLNPDQAGWNFRHIFGTDTEKDRHYNTPRVWFGQRYLNPEIEQDPQSSDLPFICRTSHKISVEDVEYILSSHYNETKYDPFGQGAEADRLKFRPISMNRTQNSHVLQLRNDVPADRSAIFWLCFGVPAFSPYVPFFANVTDTDPTYSDTPVRLDDQSAYWMYRKLSMIVESHYSHFIEQDTDYLTATKQQLRTHVAKTLADAAALTGDELTAYLTAQNHQIVAAMRQSTTQFTNELIEKGLTLSKLTFNMDKNL	not soluble
MEYGAICTPFIFVVYAKSKYLCVLISNEMGKNKLEKFADMASYPHVFEYPYSAVDNVPFDMKGKWHQEFFGNDHPIVLELGCGRGEYTVGLGRMFPDKNFIAVDIKGSRMWTGATESLQAGMKNVAFLRTNIEIIERFFAAGEVSEIWLTFSDPQMKKATKRLTSTYFMERYRKFLKPDGIIHLKTDSNFMFTYTKYMIEANQLPVEFITEDLYHSDLVDDILSIKTYYEQQWLDRGLNIKYIKFRLPQEGVLQEPDVEIELDPYRSYNRSKRSGLQTSK	not soluble
MAHHHHHHMGKHIRILKNQYLQFMSKRCIQSKAAFNICGKINVENPIVELDGDEMTRIIWKDIKEKLILPYVNLKIKYFDLSIENRDKTNDQVTIEAAEEIKKTSVGIKCATITPDAARVKEFNLKEMWKSPNGTIRNILDGTVFRTPILIKNIPKLVPNWKKPIVIGRHAYADQYKQKSLKIEKSGKFEIVFTPDDNSQVLRETVFHFKSPGVCLGMYNTEESIRNFALSCFQYALDLKMPVYMSTKSTILKIYDGLFKDIFDEIYEKQFKKSFEQHNLWYEHKLIDDMVAQVLKSEGGFLWACKNYDGDIQSDAVAQGYGSLGLMSSVLLCPDGVTCVSEAAHGTVTRHYRAYQKGEKTSTNPIASIFAWTKGLEHRAKLDKNDNLKQFCYALEKACIETVEDGLMSKDLAGCIKGIKNVTEKDYIFTQDLINAINEKLKLKILQNQSKNDPQATSYKLKNDNWNFYAPQEHST	not soluble
GMENLGDRLEVVAELSLAPGNITLTPDGRLFLSLHQFYQPEMQVAELTQDGLIPFPPQSGNAIITFDTVLGIKSDGNGIVWMLDNGNQSKSVPKLVAWDTLNNQLSRVIYLPPPITLSNSFVNDLAVDLIHNFVYISDPAPDDKAALIRVDLQTGLAARVLQGYPGIAPEDIDLVIDGVPVQIGQPDGTVIRPHLGVNGIVLDAENEWLYLSPMHSTSMYRIKSADLSNLQLTDAELGSKIERYSEKPICDGISIDKDHNIYVGDLAHSAIGVITSADRAYKLLVTDEKLSWTDSFNFGSDGYLYFDCNQLHHSAPLNAGENISAPPYYIFRLKPLAAGIVGR	soluble
MGSDKIHHHHHHGCSDSMTEESDSEQRIPIVFGTQVATRAVVENNKEGMDNFTLWGWVRESDGPKLFFDAVPVTPSGNYGEKRFWAVGRPYGFYAVHPEKMKENNIATEVSCNDKGELRVTGFDSSEMGKGAVDLMTAAKTDVVYEGGGMMAPVLLAFKHELAQVKFTVCTGEKQAEVSDIRLLGVDYKGDLLWTPEESTWQNRINCTEEGTPFVRSESVRIEAGSSVTVLDSVLLLPQPVTEHVAVTFKYAYAGKPLSEAKEAMVYLDVAQTTEWIKSSTYHYKITLPAGDADITVKVSVGDWDSRDISADW	not soluble
MSGEESMPDEEQKQSEEEEEMIRKRTLAMRKKVEEIMRNGAGLVRESNGLPKAGADYELYNSYPTFNTFMKRSEQRLNALMNKVTKSIGCAMRVPDVGSSVEHYTECVIEAQDNIAERAATLHEALKKAELDEIVKVPEFITKAAPTNRKTEAEVSAAMRTFSANIGTVLAEKFRERREEAAQMVVLEKPQKTYNISSDNSQAPFSSKLTVKHHAIEKRTGIVLHDDDESGRRDWISAETETEEEHPYIAEILHFKVPEAQLKSAECLKFTALKDTPLTMIDTKEKLEALTKTLNSVKEFAVDLEHHQMRSYLGLTCLIQISTRDEDFIIDPFPIWDHVGMLNEPFANPRILKVFHGSDSDVLWLQRDYGVHVVNLFDTYVAMKKLKYPKFSLAYLTLRFADVVLDKQYQLADWRARPLRNAMINYAREDTHYLLYSYDMLREQLLKQDTKDLANVYSESSDLCIKVYKKPVFNPKGYLTEIKFRFTLNTRQDYALTHLFKWRDVVARAEDESPHFVLPNHMMLSLSETLPRDVGGIYACCNPLPYFVKQRTGDILKIIVEARDVKLEKVGLSAKERNDAQEARGVMNDTMDHITSVLKSKIDFSHTRFDEERGEIYIDKTDEGMDIELKDHKESLLSVLQTAEIPSVETMIVVEKGKKSDNQKVKKLLNELDKFVTPFECYQMMMITKEKQEEEERKEAERKKLEEGDLPKTMFSHHDAPINRKPEFDAKLLNVDTLKLVPDDPNKPKDPEPSPMEESSSEPQIFDPSRFTDDQLLSKKAMKRKRDAARRNIDVSVVLGESSSSSDPKKKKSDDDAPVEDFDYEKADSSAFEKPVRDNNADFDPFHQKYRLKNKTKKNMAMKKSSNRQGTINYKK	not soluble
MSREDELLEKLDECENATAFLQVSNKIINLKLKALLPSVFVQDDLVKEYAVDPLLREDGPLVTTDVVSKLMFAMGKISLQTYADIGLYDQVLEYVVTQPEKIAFTDDVIYDFIKNQAVLSSQQDCFYLESINQLKFSSFESFSQMRYESLIKTVLKLSCEMLIERIEEEINQ	soluble
MGSDKIHHHHHHLILNWPQSDSEHLMVSSEQMQNIEKEMFSMGMPVEALMEKVGIGISSWILDRHGLIENGAIVLVGPGHNGGDGLVVARELYMAGVDISIWCPFPLKKQLTQKHFHYAMQIGIENLERKPDSNSDLLWIEALFGLGQSRIISDEIIRLLNSKKTFSPEKLISIDVPAGLDSDNGNIVSNTSCKASSSLTLGLFKSGLIQDSAIDYVGNLERVDIGIPDKILAGFPETQPLRISFSDLSTFVWPMLSKSKSKYQRGRVLVIAGSEKYRGAASLALNGALASGVGSVSAFLPNSVSSALWITHPEVLLLGDLTAFQDGSSDFSKVLNEVDLNRFDSILLGPGLGIADEKDCFGSDLQDFKGLLVLDADAINRLSITSKGWEWLNDREGPTWLTPHLEEFKRLFPLIDCSNPLKAGIEAAKTCSSSVLLKCAHSVISDPEGKTWQIGQVNSSVARTGLGDVLAGFVSGMGASGLASDKKLDTSLLAASALMHAYAGAFSIKGSTASTICTFLGELIKKEST	not soluble
MCHKLPKTHNCTFFRKLSNWHSGILISLEQKVTGSIPARETVQLAQWYFDFFGAEGHGFNPREGNCPTGAGVYLTSLEQKVTGSIPAWENNFCLIC	not soluble
MYIAHIFRVSVAHLQFFNGPTTKNWAEPYQSIETSDTQSHITWQALIGRPFIFVEKKFLLFLSKKFSLVGNFPIPSNFADQFSSVSIPSESLPFSRKSFSDHHPWLPLISMESSWE	not soluble
THCHLKNGEYHIDLIPQRLRGEIASFDIHVPETGELIVEQGRRITARHIKQMEKSQMQDLVVPRDYLIGKTLAKNIIDTSTGEFLAQANDEITEELLDAMANHG	not soluble
MSLSLWQQCLARLQDELPATEFSMWIRPLQAELSDNTLALYAPNRFVLDWVRDKYLNNINGLLNTFCGADAPQLRFEVGTKPVTQTLKTPVHNVVAPAQTTTAQPQRVAPAARSGWDNVPAPAEPTYRSNVNVKHTFDNFVEGKSNQLARAAARQVADNPGGAYNPLFLYGGTGLGKTHLLHAVGNGIMARKPNAKVVYMHSERFVQDMVKALQNNAIEEFKRYYRSVDALLIDDIQFFANKERSQEEFFHTFNALLEGNQQIILTSDRYPKEINGVEDRLKSRFGWGLTVAIEPPELETRVAILMKKADENDIRLPGEVAFFIAKRLRSNVRELEGALNRVIANANFTGRAITIDFVREALRDLLALQEKLVTIDNIQKTVAEYYKIKIADLLSKRRSRSVARPRQMAMALAKELTNHSLPEIGDAFGGRDHTTVLHACRKIEQLREESHDIKEDFSNLIRTLSSLEHHHHHH	not soluble
GPGSMVEVPRNFRLLQELEAGEKGTGVSQSVSIGLSGMDDIYMHNWNGTILGPPGTTFENRILSLEIHCDEHYPKRPPNIKFISRVNLPCVSSDGTVDKNKFAVFKTWDRNFTMAHCLMELRREMSLPANKKLPQPEEGSTY	soluble
MLDLFADAEPWQEPLAAGAVILRRFAFNAAEQLIRDINDVASQSPFRQMVTPGGYTMSVAMTNCGHLGWTTHRQGYLYSPIDPQTNKPWPAMPQSFHNLCQRAATAAGYPDFQPDACLINRYAPGAKLSLHQDKDEPDLRAPIVSVSLGLPAIFQFGGLKRNDPLKRLLLEHGDVVVWGGESRLFYHGIQPLKAGFHPLTIDCRYNLTFRQAGKKENLYFQNLYFQ	soluble
MSNPQPEKVRVVVGDDHPLFREGVVRALSLSGSVNVVGEADDGAAALELIKAHLPDVALLDYRMPGMDGAQVAAAVRSYELPTRVLLISAHDEPAIVYQALQQGAAGFLLKDSTRTEIVKAVLDCAKGRDVVAPSLVGGLAGEIRQRAAPVAPVLSAREREVLNRIACGQSIPAIAAELYVAPSTVKTHVQRLYEKLGVSDRAAAVAEAMRQRLLD	soluble
MLTEEKVLAALNRVKDRDLNKSIVETGGIRELKISGANVSVKVALAQTGTREQMEIQQEIVNVLKGEGAESVGLRFDQLDETEIEKLGGLPKQEFHGPPLLHPNTSTTFIAVTSGKGGVGKSTVSVNLATTLARLGKKVGIIDADIYGFSVPDMMGIEERPKVVGEQIFPVERFGVKVISMGFFVEDNAPVIWRGPMLGKMLNNFFAEVEWGDLDYLILDLPPGTGDVALDIHTMLPHSKEILVTTPHATAAFVAARAGAMALKTHHEIIGVVENMAYFESKITGEKEYVFGQGGGERLAEELKTEVLGRIPLGQPEIDEDDFAPSVYGATHPIGEIYTAIAKRVIDKTTLEHHHHHH	soluble
MNDQRKKARNTPFNMLKRERNRVSTVQQLTKRFSLGMLQGRGPLKLFMALVAFLRFLTIPPTAGILKRWGTIKKSKAINVLRGFRKEIGRMLNILNRRRR	soluble
MGSDKIHHHHHHMSGTHDTKQAIASALIELCEQKDFRKISVQDITKKVGLNRQTFYYHFTDKYDLLRWIYRHDALIYLETDICLENWEEQALKLLKAIKEKSHFYYTTVTSDSEVLLNVFSASTNRLFISLFEQVDVENHLTDKDKQFYANFFSYGCSGVLTKWILEEYPQTPLEMATQLFRLAKDTEFMAYHLYEQEANE	not soluble
